# Assay: Transmission electron microscopy of assemblies
# Assay type: physicochemical
# Settings: 7 μL aliquots on carbon-coated copper grids, stained with 1% uranyl acetate
substance,measurement,value
"HEWL: fibrils from hen egg white lysozyme, positive control for ThT and TEM",average diameter of assemblies by TEM,38 nm

# From publication PMC7074877 (ACS chemical neuroscience, 2018)
